{
  "source": "the Human Domainome abundance scans (Beltran et al. 2025)",
  "parents": {"B1": {"name": "Chromodomain-helicase-DNA-binding protein 4, residues 365 to 417; numbered along this chain, Q14839 (parent)", "chain": "YETDHQDYCEVCQQGGEIILCDTCPRAYHMVCLDPDMEKAPEGKWSCPHCEKE"}},
  "note": "± gives the uncertainty stated by the source.",
  "data": [
    {"variants_of": "B1", "assay": "abundance fitness (aPCA) (normalised: wild type 0, dead -1); higher = more abundant; growth selection in yeast, the domain comes from the species named", "conditions": "Homo sapiens", "values": [
      {"variant": "Y8F", "abundance fitness": "0.471 ± 0.29"},
      {"variant": "Y8E", "abundance fitness": "-0.109 ± 0.11"},
      {"variant": "Y8L", "abundance fitness": "0.031 ± 0.1"},
      {"variant": "Y8D", "abundance fitness": "-0.269 ± 0.13"},
      {"variant": "Y8P", "abundance fitness": "0.033 ± 0.11"},
      {"variant": "Y8M", "abundance fitness": "0.011 ± 0.12"},
      {"variant": "Y8A", "abundance fitness": "-0.052 ± 0.09"},
      {"variant": "Y8C", "abundance fitness": "-0.222 ± 0.18"},
      {"variant": "Y8H", "abundance fitness": "0.481 ± 0.15"},
      {"variant": "Y8I", "abundance fitness": "-0.099 ± 0.17"},
      {"variant": "Y8G", "abundance fitness": "-0.291 ± 0.08"},
      {"variant": "Y8Q", "abundance fitness": "0.427 ± 0.12"},
      {"variant": "Y8N", "abundance fitness": "-0.13 ± 0.28"},
      {"variant": "T3W", "abundance fitness": "-0.182 ± 0.14"},
      {"variant": "T3C", "abundance fitness": "0.124 ± 0.19"},
      {"variant": "T3S", "abundance fitness": "0.185 ± 0.11"},
      {"variant": "T3P", "abundance fitness": "-0.225 ± 0.16"},
      {"variant": "T3F", "abundance fitness": "0.059 ± 0.16"},
      {"variant": "T3M", "abundance fitness": "0.19 ± 0.18"},
      {"variant": "T3L", "abundance fitness": "0.141 ± 0.1"},
      {"variant": "T3D", "abundance fitness": "-0.022 ± 0.43"},
      {"variant": "T3A", "abundance fitness": "-0.396 ± 0.14"},
      {"variant": "T3G", "abundance fitness": "0.13 ± 0.1"},
      {"variant": "T3R", "abundance fitness": "0.024 ± 0.1"},
      {"variant": "T3I", "abundance fitness": "0.111 ± 0.17"},
      {"variant": "T3K", "abundance fitness": "0.205 ± 0.16"},
      {"variant": "T3V", "abundance fitness": "0.103 ± 0.12"},
      {"variant": "T3N", "abundance fitness": "-0.106 ± 0.2"},
      {"variant": "T3Y", "abundance fitness": "0.034 ± 0.3"},
      {"variant": "T3H", "abundance fitness": "-0.461 ± 0.29"},
      {"variant": "T3Q", "abundance fitness": "-0.29 ± 0.26"},
      {"variant": "T3E", "abundance fitness": "0.074 ± 0.15"},
      {"variant": "Q6V", "abundance fitness": "-0.347 ± 0.095"},
      {"variant": "Q6E", "abundance fitness": "-0.306 ± 0.36"},
      {"variant": "Q6A", "abundance fitness": "-0.269 ± 0.26"},
      {"variant": "Q6P", "abundance fitness": "-0.161 ± 0.2"},
      {"variant": "Q6Y", "abundance fitness": "-0.243 ± 0.2"},
      {"variant": "Q6F", "abundance fitness": "-0.606 ± 0.15"},
      {"variant": "Q6G", "abundance fitness": "-0.384 ± 0.13"},
      {"variant": "Q6H", "abundance fitness": "-0.359 ± 0.31"},
      {"variant": "Q6W", "abundance fitness": "-0.347 ± 0.097"},
      {"variant": "Q6S", "abundance fitness": "0.026 ± 0.12"},
      {"variant": "Q6L", "abundance fitness": "-0.239 ± 0.096"},
      {"variant": "Q6C", "abundance fitness": "-0.212 ± 0.12"},
      {"variant": "D4T", "abundance fitness": "-0.168 ± 0.11"},
      {"variant": "D4W", "abundance fitness": "-0.173 ± 0.1"},
      {"variant": "D4I", "abundance fitness": "-0.089 ± 0.13"},
      {"variant": "D4C", "abundance fitness": "0.071 ± 0.1"},
      {"variant": "D4G", "abundance fitness": "0.008 ± 0.077"},
      {"variant": "D4L", "abundance fitness": "-0.003 ± 0.091"},
      {"variant": "D4N", "abundance fitness": "-0.114 ± 0.17"},
      {"variant": "D4S", "abundance fitness": "-0.127 ± 0.11"},
      {"variant": "D4F", "abundance fitness": "-0.031 ± 0.16"},
      {"variant": "D4Y", "abundance fitness": "0.004 ± 0.23"},
      {"variant": "D4K", "abundance fitness": "0.23 ± 0.17"},
      {"variant": "D4A", "abundance fitness": "-0.066 ± 0.093"},
      {"variant": "D4E", "abundance fitness": "0.1 ± 0.11"},
      {"variant": "D4Q", "abundance fitness": "0.114 ± 0.14"},
      {"variant": "D4M", "abundance fitness": "0.299 ± 0.13"},
      {"variant": "D4H", "abundance fitness": "0.304 ± 0.29"},
      {"variant": "H5T", "abundance fitness": "0.349 ± 0.13"},
      {"variant": "H5R", "abundance fitness": "0.193 ± 0.086"},
      {"variant": "H5Q", "abundance fitness": "-0.111 ± 0.15"},
      {"variant": "H5D", "abundance fitness": "-0.801 ± 0.18"},
      {"variant": "H5F", "abundance fitness": "-0.059 ± 0.19"},
      {"variant": "H5V", "abundance fitness": "0.208 ± 0.088"},
      {"variant": "H5N", "abundance fitness": "0.12 ± 0.15"},
      {"variant": "H5K", "abundance fitness": "-0.044 ± 0.15"},
      {"variant": "H5M", "abundance fitness": "0.41 ± 0.12"},
      {"variant": "H5P", "abundance fitness": "0.19 ± 0.13"},
      {"variant": "H5G", "abundance fitness": "0.158 ± 0.081"},
      {"variant": "H5A", "abundance fitness": "0.283 ± 0.098"},
      {"variant": "H5C", "abundance fitness": "-0.083 ± 0.27"},
      {"variant": "H5W", "abundance fitness": "-0.23 ± 0.12"},
      {"variant": "H5I", "abundance fitness": "0.092 ± 0.15"},
      {"variant": "H5S", "abundance fitness": "0.224 ± 0.099"},
      {"variant": "D7E", "abundance fitness": "0.015 ± 0.11"},
      {"variant": "D7R", "abundance fitness": "-0.005 ± 0.11"},
      {"variant": "D7A", "abundance fitness": "-0.095 ± 0.1"},
      {"variant": "D7C", "abundance fitness": "-1.06 ± 0.33"},
      {"variant": "D7N", "abundance fitness": "-0.183 ± 0.11"},
      {"variant": "D7P", "abundance fitness": "-0.29 ± 0.24"},
      {"variant": "D7F", "abundance fitness": "-0.544 ± 0.26"},
      {"variant": "D7G", "abundance fitness": "0 ± 0.092"},
      {"variant": "D7Q", "abundance fitness": "0.119 ± 0.19"},
      {"variant": "D7I", "abundance fitness": "-0.458 ± 0.22"},
      {"variant": "D7Y", "abundance fitness": "-0.003 ± 0.21"},
      {"variant": "D7H", "abundance fitness": "-0.51 ± 0.48"},
      {"variant": "D7K", "abundance fitness": "-0.075 ± 0.2"},
      {"variant": "D7S", "abundance fitness": "0.037 ± 0.12"},
      {"variant": "D7W", "abundance fitness": "-0.346 ± 0.14"},
      {"variant": "D7V", "abundance fitness": "-0.19 ± 0.11"},
      {"variant": "D7T", "abundance fitness": "0.067 ± 0.15"},
      {"variant": "D7M", "abundance fitness": "-0.037 ± 0.19"},
      {"variant": "Y1V", "abundance fitness": "0.348 ± 0.26"}
    ]}
  ]
}
